Assay results: article PMC10842940, “Establishment of dsDNA-dsDNA interactions by the condensin complex” (Molecular cell, 2023)

Legend:
[1] = target: T1, Cut14^Smc2 (fission yeast condensin SMC subunit) (S. pombe, UniProt P41003 1-1172); assay: cross-linking; sulfo-SDA cross-link mass spectrometry (CLMS) of the purified five-subunit condensin complex with equimolar 124 bp linear dsDNA and 0.5 mM ADP·BeF3 (DNA-gripping state); CL buffer, 30°C 30 min, UV 365 nm on ice; 1% FDR at residue-pair level; conditions: both partners purified
T1 construct: Cut14 (Smc2), S. pombe condensin SMC subunit; cDNA cloned into an S. cerevisiae expression vector; The Pk tag is used for the condensin immunoprecipitation in the DNA assays; also called Cut14-3xPk; source: S. cerevisiae (w303, pep4 deleted), co-overexpressed with the other four condensin subunits from GAL1-10 promoters; in cell extract, and purified as the complex (IgG-agarose, 3C protease …)
T1 sequence (looked up): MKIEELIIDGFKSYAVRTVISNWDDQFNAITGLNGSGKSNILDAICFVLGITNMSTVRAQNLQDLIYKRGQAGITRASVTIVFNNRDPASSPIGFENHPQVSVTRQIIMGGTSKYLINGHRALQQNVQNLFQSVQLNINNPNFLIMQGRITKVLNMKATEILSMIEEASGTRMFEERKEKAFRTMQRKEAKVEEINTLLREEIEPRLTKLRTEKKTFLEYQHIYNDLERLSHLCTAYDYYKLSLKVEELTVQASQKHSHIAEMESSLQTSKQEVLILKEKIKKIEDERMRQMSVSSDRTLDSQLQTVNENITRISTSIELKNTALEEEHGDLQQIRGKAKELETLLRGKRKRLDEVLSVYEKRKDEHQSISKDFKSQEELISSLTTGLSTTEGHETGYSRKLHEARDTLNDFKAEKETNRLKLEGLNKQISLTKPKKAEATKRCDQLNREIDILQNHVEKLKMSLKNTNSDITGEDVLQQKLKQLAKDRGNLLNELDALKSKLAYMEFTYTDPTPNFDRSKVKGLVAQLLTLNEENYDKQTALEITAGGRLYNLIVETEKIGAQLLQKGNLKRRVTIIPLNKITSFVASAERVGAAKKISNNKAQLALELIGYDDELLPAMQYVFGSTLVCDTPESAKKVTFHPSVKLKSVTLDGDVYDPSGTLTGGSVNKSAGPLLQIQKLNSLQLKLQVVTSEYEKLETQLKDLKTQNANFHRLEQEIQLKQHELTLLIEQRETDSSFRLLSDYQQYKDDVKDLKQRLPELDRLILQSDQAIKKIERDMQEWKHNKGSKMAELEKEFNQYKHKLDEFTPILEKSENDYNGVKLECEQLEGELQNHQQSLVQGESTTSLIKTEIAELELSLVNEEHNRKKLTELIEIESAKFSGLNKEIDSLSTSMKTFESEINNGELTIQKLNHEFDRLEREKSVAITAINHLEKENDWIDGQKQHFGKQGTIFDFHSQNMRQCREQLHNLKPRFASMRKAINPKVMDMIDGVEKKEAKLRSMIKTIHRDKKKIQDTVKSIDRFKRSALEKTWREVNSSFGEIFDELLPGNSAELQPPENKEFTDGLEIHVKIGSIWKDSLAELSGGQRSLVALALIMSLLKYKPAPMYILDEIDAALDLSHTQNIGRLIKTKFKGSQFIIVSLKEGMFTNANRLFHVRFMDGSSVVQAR

[2] = target: T2, Cut3^Smc4 (fission yeast condensin SMC subunit) (S. pombe, UniProt P41004 1-1324); assay: as above; conditions: both partners purified
T2 construct: Cut3 (Smc4), S. pombe condensin SMC subunit; cDNA cloned into an S. cerevisiae expression vector; source: S. cerevisiae (w303, pep4 deleted), co-overexpressed with the other four condensin subunits from GAL1-10 promoters; in cell extract, and purified as the complex (IgG-agarose, 3C protease elution, heparin, Superose 6)
T2 sequence (looked up): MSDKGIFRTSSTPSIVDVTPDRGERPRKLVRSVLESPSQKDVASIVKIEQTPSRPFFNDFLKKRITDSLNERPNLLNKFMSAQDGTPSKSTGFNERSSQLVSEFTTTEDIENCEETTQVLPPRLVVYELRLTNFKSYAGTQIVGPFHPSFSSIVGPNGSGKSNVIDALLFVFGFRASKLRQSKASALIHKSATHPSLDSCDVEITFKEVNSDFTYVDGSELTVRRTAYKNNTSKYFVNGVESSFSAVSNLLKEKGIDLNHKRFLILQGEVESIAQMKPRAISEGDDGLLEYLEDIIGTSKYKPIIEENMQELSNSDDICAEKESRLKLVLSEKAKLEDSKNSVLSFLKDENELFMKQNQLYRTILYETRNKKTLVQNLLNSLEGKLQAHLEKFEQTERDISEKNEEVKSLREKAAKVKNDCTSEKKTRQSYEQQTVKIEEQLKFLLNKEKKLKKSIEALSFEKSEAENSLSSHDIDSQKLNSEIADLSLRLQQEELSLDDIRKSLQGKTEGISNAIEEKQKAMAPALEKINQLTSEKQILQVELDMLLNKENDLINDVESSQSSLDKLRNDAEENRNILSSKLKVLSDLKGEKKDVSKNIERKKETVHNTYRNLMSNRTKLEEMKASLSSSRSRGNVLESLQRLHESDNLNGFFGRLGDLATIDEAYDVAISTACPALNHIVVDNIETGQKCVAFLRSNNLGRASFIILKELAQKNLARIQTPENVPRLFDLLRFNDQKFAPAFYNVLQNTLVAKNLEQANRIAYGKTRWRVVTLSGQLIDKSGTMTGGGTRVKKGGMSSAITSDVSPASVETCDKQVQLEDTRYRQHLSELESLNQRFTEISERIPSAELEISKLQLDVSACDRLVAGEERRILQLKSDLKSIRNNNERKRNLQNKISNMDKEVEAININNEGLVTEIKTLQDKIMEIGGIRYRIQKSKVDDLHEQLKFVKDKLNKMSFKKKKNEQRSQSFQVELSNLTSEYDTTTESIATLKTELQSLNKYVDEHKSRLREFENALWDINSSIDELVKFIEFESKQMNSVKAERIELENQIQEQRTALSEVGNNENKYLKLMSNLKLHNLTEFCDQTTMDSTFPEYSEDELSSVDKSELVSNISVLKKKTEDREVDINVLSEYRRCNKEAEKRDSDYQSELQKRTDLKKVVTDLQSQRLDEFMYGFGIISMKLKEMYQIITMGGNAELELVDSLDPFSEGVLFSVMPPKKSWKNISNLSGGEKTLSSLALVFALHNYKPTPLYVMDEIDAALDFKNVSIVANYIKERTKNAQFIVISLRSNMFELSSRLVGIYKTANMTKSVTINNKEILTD

- binding result [1]: binds
- binding result [2]: binds
B1: Cnd1^Ycs4 (fission yeast condensin HEAT-repeat subunit) (natural protein, S. pombe, UniProt O94679 1-1158, looked up)
chain: MSLDLLSRLKKYIHDEENSDLDSIYAECENAGLTAVVNDVIDTLLLGTSSCFDEDCLEKLFAICSHFADLSSSVRNKVYDLLTSNISSESAILEDMISANATDFTVPQTNLETTGIAFQLTVNSLSSSNQLSVIRSSTNTVKGRKKNPTTNSNWNGISHVNALLDAIITLFQKKLSRVWTTSSERDMFLSLFLKPIYTLMESEINIKNASFRSRLFNIIGLAVQFHNHTTAAETNIIQNLQYFEHLSEYAADLVHIVTVQFNSVTLAEGIIRTLCSLEFNDNDVKGPKQVALFLVRLSSLIPNLCLKQLTQLVKLLDSESYTLRCAIIEVLANVVIDQIHDEAQNEMSESVPATVQSLMDLLSERLLDISPYCRTKVLHVFIKIFDLPIKYPRKRQEIAELVIRCLQDRSSHVRRNAIKLFSKLLTTHPFSVMHNGLLTRNIWEKGLSIIEEQLNSLQPKQQEKVVDSELEVDENLLEDATMIQDDESHEGESHLENSLSEYVDSVPAEEIVKVNLTKRFYLEALQYIDIVEAGAKIISQLLFAKNKSEVIESMDFFVFCNSFGISSSKLYIKKMIHLIWVKGTSDEGNNIQNHVLSCYKTLFFEPPPNSGTNEAANYIARNLISLTYDASLAELTSLEQMLCILMKDGYFSHLVITKLWQVYSYQKKDISRTQRRGSIIVIGMLALGNTDVVMQGLDHLIQIGLGPPGLEDLVLARYTCIAIKRIGKDASGSSNINFPNSHTLCQKLCMLLLRPSFSEEWFGLEEQAIEAIYAVAKHPDELCTNIILLLTKQLFKPSNHENTTSNDDHAMDEDLDDSPEEETLKDEEEIGIRLAHLIFLVGHVAIKQLVYIEYCEAEFKRRKADAERLAVQNSNNPINGQETSEYDLITGTSEDDFSEAMTFIRERELLYGENSLLSRFAPLVVELCSNHKSHNNQSLLLAASLTLSKFMCLSNNFCMEHLPLLITILEKCDNPIIRNNLVIGLADLTVCFNHFIDEISEYLYRRLMDEESSVKKTCFMTLAFLILAGQIKVKGQLGIMARSLEDEDARISDLARMFFTDFAAKDNSVYNNFIDIFSVLSRSAEEQDEDDAKFKRIIRFLTSFIEKERHTKQLAERLAARLDRCKTQRQWDHVVYALSLLPHKADNIQKLIDDGYHE
notes: Cnd1 (Ycs4), S. pombe condensin HEAT-repeat subunit; cDNA cloned into an S. cerevisiae expression vector; source: S. cerevisiae (w303, pep4 deleted), co-overexpressed with the other four condensin subunits from GAL1-10 promoters; in cell extract, and purified as the complex (IgG-agarose, 3C protease elution, heparin, Superose 6)
